Bridges are numbered along the chain shown (N, C = ends). [ ]: non-standard residue; d: D form.
What was measured:
[1] = target: human melanocortin-3 receptor (human) (UniProt P41968); assay: competition with [125I]-NDP-alpha-MSH, CHO-K1 cell membranes
[2] = target: human melanocortin-4 receptor (human) (UniProt P32245); assay: as above
[3] = target: human melanocortin-1 receptor (human) (UniProt Q01726); assay: as above
[4] = target: human melanocortin-3 receptor (human) (UniProt P41968); assay: cell-based or functional assay
[5] = target: human melanocortin-4 receptor (human) (UniProt P32245); assay: cell-based or functional assay

Sequence of human melanocortin-4 receptor (human) (P32245 whole entry): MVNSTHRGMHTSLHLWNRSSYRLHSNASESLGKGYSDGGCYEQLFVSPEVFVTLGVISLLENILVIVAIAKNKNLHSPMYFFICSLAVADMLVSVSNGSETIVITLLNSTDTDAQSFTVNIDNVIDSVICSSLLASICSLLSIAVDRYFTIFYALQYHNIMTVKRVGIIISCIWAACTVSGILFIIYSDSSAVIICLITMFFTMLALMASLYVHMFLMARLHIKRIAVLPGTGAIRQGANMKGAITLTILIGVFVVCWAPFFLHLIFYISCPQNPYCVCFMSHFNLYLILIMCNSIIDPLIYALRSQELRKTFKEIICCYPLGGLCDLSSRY
Sequence of human melanocortin-3 receptor (human) (P41968 whole entry): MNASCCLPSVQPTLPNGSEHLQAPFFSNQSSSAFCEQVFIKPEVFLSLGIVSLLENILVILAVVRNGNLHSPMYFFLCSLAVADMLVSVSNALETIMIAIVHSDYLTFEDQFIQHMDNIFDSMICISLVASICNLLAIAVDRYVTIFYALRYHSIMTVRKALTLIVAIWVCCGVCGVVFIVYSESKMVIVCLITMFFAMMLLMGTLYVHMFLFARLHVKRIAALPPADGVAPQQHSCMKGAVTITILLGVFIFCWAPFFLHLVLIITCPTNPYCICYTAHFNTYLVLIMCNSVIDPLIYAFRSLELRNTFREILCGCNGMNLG
Sequence of human melanocortin-1 receptor (human) (Q01726 whole entry): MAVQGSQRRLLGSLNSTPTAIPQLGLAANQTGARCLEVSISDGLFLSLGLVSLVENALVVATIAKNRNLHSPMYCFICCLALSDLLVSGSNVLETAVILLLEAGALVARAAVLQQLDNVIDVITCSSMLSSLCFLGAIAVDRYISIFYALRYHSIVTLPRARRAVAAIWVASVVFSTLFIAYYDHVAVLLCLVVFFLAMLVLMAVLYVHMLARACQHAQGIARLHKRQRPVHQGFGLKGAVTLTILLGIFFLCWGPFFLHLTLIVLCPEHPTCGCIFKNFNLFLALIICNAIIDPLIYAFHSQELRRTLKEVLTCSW

Ki [1]: 1920 nM
Ki [2]: 45.2 nM
Ki [3]: 72.6 nM
EC50, intracellular cyclic AMP (cAMP) levels [4]: 22.3 nM
EC50, intracellular cyclic AMP (cAMP) levels [5]: 3.62 nM
B1: cyclo[Hydantoin(C(O)-(Glu-D-Ala))-His-D-Phe-Arg-Trp-Lys]-NH2 (peptide)
peptide: H[dF]RWK-NH2
modifications: lactam N-5; not fully specified (N-terminus); printed as cyclo[Hydantoin(C(O)-(Glu-D-Ala))-His-D-Phe-Arg-Trp-Lys]-NH2; also: hydantoin ring from Glu and D-Ala with C(O) joining their backbone nitrogens

Source: US20210163536A1
